# Experimental data from patent US20060142171A1, “Novel alkaline protease” (priority 2003, published 2006).
# B1: AL protease: thermostable alkaline, non-Ca2+-dependent serine protease isolated from Nesterenkonia sp. nov. strain AL (DSM 15380); SEQ. ID. NO. 1 (protein, listed as Nesterenkonia sp.)
# chain: QNPADSPHIGKVFFSTNQGDFVCSANIVASANQSTVATAGHCLHDGNGGQFARNFVFAPAYDYGESEHGVWAAEELVTSAEWANRGDFEHDYAFAVLETKGGTTVQQQVGTASPIAFNQPRGQYYSAYGYPAAAPFNGQELHSCHGTATNDPMGSSTQGIPCNMTGGSSGGPWFLGQGTGGAQNSVNSYGYTFLPDVMFGPYFGSGAQQNYNYAST
# Experiments:
# elastin-orcein = test: Elastolytic activity; format: biochemical; settings: 100 mM Tris-HCl buffer pH 8.8, 37° C.
# Description: Elastolytic activity of AL protease was estimated by the method of (Tsai et al. 1983) with slight modification. The reaction mixture in a total volume of 1.5 ml comprised of 20 mg elastin-orcein and an appropriate amount of the enzyme in 100 mM Tris-HCl buffer pH 8.8, was incubated at 37° C. for 1 h with constant shaking. The substrate was removed by centrifugation and increase in optical density was measured at 590 nm. A control reaction was performed using the denatured enzyme as described above. The concentration of soluble products liberated was calculated from a standard curve using elastase. One unit was defined as the amount of enzyme, which solubilizes 100 μg of elastin under standard reaction conditions.
# haemoglobin = test: Protease activity with haemoglobin as substrate; format: biochemical; settings: 50 mM glycine-NaOH, pH 10 at 50° C.
# keratin azure = test: Keratinolytic activity; format: biochemical; settings: 10 mM glycine-NaOH, pH 10 at 50° C.
# Description: The hydrolysis of keratin azure (Sigma) by the AL protease was determined according to the modified method of Santos et al. (1996). The reaction mixture (1.5 ml) comprising 0.5 ml of the enzyme solution and 10 mg keratin-azure in 10 mM glycine-NaOH buffer, pH 10 was incubated at 50° C. with constant shaking over 24 h period. The substrate was removed by centrifugation and liberation of the azo dye was measured at 595 nm. The reaction under similar conditions using heat-treated enzyme (by incubation in a boiling water bath for 15 min) was also run as a control. One unit (U) of keratinolytic activity was defined as an increase in the A595nm of 0.01 after 2 h.
# Isoelectric point = format: physicochemical
# casein = test: Protease activity with casein as substrate (specific activity, pH and temperature profile); format: biochemical; settings: for Optimum pH for activity: assayed at 50° C.
# Description: The AL protease activity with 0.1-4% (w/v) casein and haemoglobin (Sigma), respectively, as protein substrates, was determined using a modified method of Ferrero et al. (1996). The reaction mixture in a total volume of 1 ml containing the substrate and an appropriate amount of the enzyme in 50 mM glycine-NaOH buffer, pH 10 was incubated at […] for 20 min, after which the reaction was terminated by addition of 0.5 ml trichloroacetic acid with subsequent centrifugation. To 0.5 ml supernatant was added 2.5 ml sodium carbonate followed by 0.5 ml of 1 M Folin-Ciocalteau Phenol reagent (Sigma). The reaction mixture was allowed to stand for 30 min-at room temperature before absorbance was measured at 660 nm. One unit of enzyme activity is defined as amount of the enzyme, which released 1 μg tyrosine per minute under the assay conditions.
# Protease activity was determined using casein as substrate as described earlier [3.12]. The reaction mixture in a total volume of 2 ml was composed of 1% casein, 50 mM glycine-NaOH buffer, pH 10, and appropriately diluted enzyme. After 20 min incubation at 50° C. the reaction was terminated by adding equal volume of 10% trichloroacetic acid (TCA). After separation of the unreacted casein precipitate by centrifugation, 0.5 ml of clear supernatant was mixed with 2.5 ml of 0.5 M Na2CO3 and 0.5 ml of 1 N Folin-Ciocalteau's phenol reagent. After 30 min at 25° C., absorbance was measured at 660 nm against a reagent blank. One unit of protease activity was defined as the amount of enzyme that released 1 μg of amino acid equivalent to tyrosine per min under the standard assay conditions.
# Both proteases were optimally active in the alkaline region.
# The effect of temperature on activity of the two proteases was determined by assaying enzyme activity at different temperatures in glycine-NaOH buffer, pH 10, while the thermal stability was determined by incubating the enzymes at different temperatures followed by measuring the residual activity under standard conditions. These measurements were done both in the presence and absence of 5 mM Ca^2+. […] Its optimum temperature for activity was at 70° C. (FIG. 9A), but when incubated at that temperature the enzyme was inactivated within 1 h (FIG. 10A). […] At temperature values above 50° C. Ca^2+ was absolutely required for the thermal stability of AL-89 protease (FIG. 10B).
# Assay of protease activity was performed according to Ferrero et al. with some modifications. One millilitre of the reaction mixture containing 1% casein in 50 mM glycine-NaOH buffer, pH 10.0 and an appropriate amount of enzyme was incubated at 50° C. for 20 min after which the reaction was terminated by addition of 0.5 ml of trichloroacetic acid and centrifuged. 2.5 ml sodium carbonate was added to 0.5 ml supernatant followed by 0.5 ml of 1 M Folin-Ciocalteau reagent. The reaction mixture was allowed to stand for 30 min at room temperature before measuring the absorbance at 660 nm. One unit of protease activity was defined as the amount of enzyme, which released 1 μg tyrosine per min under standard assay conditions.
# [1] = Circular dichroism spectroscopy; format: physicochemical
# Description: The conformational stability of the AL protease was examined by circular dichroism (CD) spectroscopy and compared with that of Subtilisin Carlsberg (bacterial protease, type VIII; Sigma Chemical Co., St. Louis, USA). The CD spectra of the proteins were obtained on a Jasco spectropolarimeter model J-720, at 25° C. in the far UV range from 195 to 250 nm at a scan rate of 10 nm/min using a sample cell path length of 0.1 cm. The ellipticity values (θ) for every nm wavelength increase were obtained in mdeg directly from the instrument and were recorded online in a computer. An average of 6 scans was calculated and the corresponding no-enzyme spectra were subtracted for each sample.
# [2] = Autolytic degradation by SDS-PAGE; format: physicochemical; settings: incubation at 50° C. up to 24 h; not shown
# Description: Autolytic degradation of the protease was investigated by SDS-PAGE. The AL protease and Subtilisin Carlsberg were individually incubated in 10 mM Tris-HCl buffer 8 for 24 h at 50° C. Electrophoresis of the enzyme samples taken at different time intervals was performed according to the method of Laemmli, on 12% polyacrylamide gel using a Mini Protean II equipment (Bio-Rad, Richmond, Calif.).
molecule,measurement,setting,value
B1,Hydrolysis of elastin-orcein,elastin-orcein,able to hydrolyse elastin-orcein to a detectable level
same,Time to complete hydrolysis of haemoglobin,haemoglobin,≤ 20 min
same,Time of main hydrolysis of keratin-azure,keratin azure,2 to 12 h
same,Isoelectric point,Isoelectric point,4.2
same,Time to complete hydrolysis of casein,"casein; 50 mM glycine-NaOH, pH 10 at 50° C.",≤ 20 min
same,Optimum pH for activity,casein,10
same,Optimum pH for activity,casein; listed as alkaline protease from Nesterenkonia sp. nov. strain,10
same,Activity as % of peak activity,casein; at pH 12,about 60%
same,Activity as % of maximum activity,casein; between pH 7.5 to 11.5,over 90%
same,Optimum temperature for activity,"casein; glycine-NaOH buffer, pH 10, same in presence and absence of 5 mM Ca^2+",70 °C
same,Specific activity,"casein; purified enzyme, casein as substrate, pH 10, 50° C., listed as Nesterenkonia sp. AL protease",1802.3 U/mg
same,Ca^2+ dependence of activity and stability,"casein; with and without 5 mM Ca^2+, all temperatures tested",Ca^2+ independent
same,Secondary structure in the presence of SDS,"[1]; 0.1-1% (w/v) SDS, data not shown",no alteration
same,Secondary structure after incubation,"[1]; 24 h at 50° C., 10 mM glycine-NaOH buffer, pH 10.0",undisturbed
same,Degradation on gel electrophoresis,[2],unaltered
